# Results: article PMC11698917 (Nature Communications, 2025)
# Values joined by “and” are separate entries in the source; they are usually repeats but may differ in a detail not shown here. Equal entries are not always repeated.
# T1: human VANGL2, full-length (FL), purified (human, UniProt Q9ULK5 1-521)
# T1 sequence (looked up): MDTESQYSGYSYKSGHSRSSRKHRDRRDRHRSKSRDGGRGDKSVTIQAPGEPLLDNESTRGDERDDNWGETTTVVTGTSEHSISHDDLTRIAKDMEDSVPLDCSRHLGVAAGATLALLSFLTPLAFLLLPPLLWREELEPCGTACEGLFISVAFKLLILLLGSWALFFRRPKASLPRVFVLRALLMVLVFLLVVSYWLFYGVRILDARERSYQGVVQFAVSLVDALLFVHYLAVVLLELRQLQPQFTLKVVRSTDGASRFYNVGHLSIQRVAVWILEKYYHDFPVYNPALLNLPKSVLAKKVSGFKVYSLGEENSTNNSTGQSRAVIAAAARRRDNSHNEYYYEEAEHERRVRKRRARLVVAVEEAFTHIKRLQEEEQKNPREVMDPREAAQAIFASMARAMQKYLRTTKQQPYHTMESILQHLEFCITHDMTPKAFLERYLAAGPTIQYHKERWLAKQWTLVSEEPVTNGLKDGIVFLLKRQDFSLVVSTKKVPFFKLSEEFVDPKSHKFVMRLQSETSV
# What was measured:
# [1] = target: the molecule itself; assay: AUC
# [2] = target: T1, human VANGL2, full-length (FL), purified; assay: cryo-EM structure
binding result [2],Binder,stoichiometry N [1]
–,"human VANGL1, full-length (FL), purified (natural protein, UniProt Q8TAA9 1-524, looked up) MDTESTYSGYSYYSSHSKKSHRQGERTRERHKSPRNKDGRGSEKSVTIQPPTGEPLLGNDSTRTEEVQDDNWGETTTAITGTSEHSISQEDIARISKDMEDSVGLDCKRYLGLTVASFLGLLVFLTPIAFILLPPILWRDELEPCGTICEGLFISMAFKLLILLIGTWALFFRKRRADMPRVFVFRALLLVLIFLFVVSYWLFYGVRILDSRDRNYQGIVQYAVSLVDALLFIHYLAIVLLELRQLQPMFTLQVVRSTDGESRFYSLGHLSIQRAALVVLENYYKDFTIYNPNLLTASKFRAAKHMAGLKVYNVDGPSNNATGQSRAMIAAAARRRDSSHNELYYEEAEHERRVKKRKARLVVAVEEAFIHIQRLQAEEQQKAPGEVMDPREAAQAIFPSMARALQKYLRITRQQNYHSMESILQHLAFCITNGMTPKAFLERYLSAGPTLQYDKDRWLSTQWRLVSDEAVTNGLRDGIVFVLKCLDFSLVVNVKKIPFIILSEEFIDPKSHKFVLRLQSETSV",~6 and 3
binds,"NPGMNRFLGLYGEDDDSWCSSSSSSSDSEEEGYFLGQPIPQPRPQR (peptide, UniProt Q96MT3 745-790, looked up) [PK1^745-790 peptide, purified from E. coli]",–
